We go through four sequences from the supplement of paper PMC5998384.

For data set [1], the system named is HeLa Kyoto. As to the kind of experiment: melting temperature (median over replicates), in situ; higher = more thermally stable.
For data set [2], the system named is HeLa Kyoto. As to the kind of experiment: thermal stability score vs G1/S (z-score of summed log2 fold changes over temperatures); higher = more thermally stable than in G1/S.
In data set [3] the test system is HeLa Kyoto. As to the kind of experiment: solubility change mitosis vs G1/S (difference of NP-40 vs SDS log2 ratios) (log2 ratio difference); higher = more soluble in mitosis.
The subject of data set [4] is HeLa Kyoto. As to the kind of experiment: solubility in G1/S (NP-40 vs SDS abundance) (log2 ratio); higher = more soluble. As to conditions: cell cycle stage: G1/S.
Where [5] appears, read: cell cycle stage: early G1 (4.5 h after nocodazole release).
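Throughout, for melting temperature (median over replicates), in situ: HeLa Kyoto cells synchronized by double thymidine or nocodazole block, proteins quantified by TMT10plex mass spectrometry, three independent biological replicates.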
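Throughout, for solubility change mitosis vs G1/S (difference of NP-40 vs SDS log2 ratios): synchronized HeLa Kyoto cells (double thymidine block for G1/S, nocodazole release for mitosis), protein amounts in NP-40 versus SDS lysates quantified by mass spectrometry, three biological replicates.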
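Throughout, for solubility in G1/S (NP-40 vs SDS abundance): HeLa Kyoto cells arrested at G1/S by double thymidine block, proteins quantified by TMT10plex mass spectrometry in mild NP-40 versus SDS extracts, three biological replicates.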
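Throughout, for thermal stability score vs G1/S (z-score of summed log2 fold changes over temperatures): synchronized HeLa Kyoto cells, proteins quantified by TMT10plex mass spectrometry, three biological replicates, mitosis taken 0.5 h after nocodazole release, G1/S directly after double thymidine block.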

For “MLRWLRDFVLPTAACQDAEQPTRYETLFQALDRNGDGVVDIGELQEGLRNLGIPLGQDAEEKIFTTGDVNKDGKLDFEEFMKYLKDHEKKMKLAFKSLDKNNDGKIEASEIVQSLQTLGLTISEQQAELILQSIDVDGTMTVDWNEWRDYFLFNPVTDIEEIIRFWKHSTGIDIGDSLTIPDEFTEDEKKSGQWWRQLLAGGIAGAVSRTSTAPLDRLKIMMQVHGSKSDKMNIFGGFRQMVKEGGIRSLWRGNGTNVIKIAPETAVKFWAYEQYKKLLTEEGQKIGTFERFISGSMAGATAQTFIYPMEVMKTRLAVGKTGQYSGIYDCAKKILKHEGLGAFYKGYVPNLLGIIPYAGIDLAVYELLKSYWLDNFAKDSVNPGVMVLLGCGALSSTCGQLASYPLALVRTRMQAQAMLEGSPQLNMVGLFRRIISKEGIPGLYRGITPNFMKVLPAVGISYVVYENMKQTLGVTQK [SLC25A24]”, the melting temperature was found to be 56.8 °C in data set [1] (cell cycle stage: G1/S) and 57.8 °C in data set [1] (cell cycle stage: mitosis). In addition, the thermal stability score was -1.13 in data set [2] (setting [5]) and -0.922 in data set [2] (cell cycle stage: mitosis). In addition, in data set [3], the “solubility change mitosis (log2)” value was -0.0619. Also, the “solubility in G1/S (log2)” value in data set [4] amounted to 0.296.

Take “MLSAASRVVSRAAVHCALRSPPPEARALAMSRPPPPRVASVLGTMEMGRRMDAPASAAAVRAFLERGHTELDTAFMYSDGQSETILGGLGLGLGGGDCRVKIATKANPWDGKSLKPDSVRSQLETSLKRLQCPQVDLFYLHAPDHGTPVEETLHACQRLHQEGKFVELGLSNYASWEVAEICTLCKSNGWILPTVYQGMYNATTRQVETELFPCLRHFGLRFYAYNPLAGGLLTGKYKYEDKDGKQPVGRFFGNSWAETYRNRFWKEHHFEAIALVEKALQAAYGASAPSVTSAALRWMYHHSQLQGAHGDAVILGMSSLEQLEQNLAATEEGPLEPAVVDAFNQAWHLVAHECPNYFR [AKR7A2]”: the melting temperature in data set [1] (cell cycle stage: G1/S) and in data set [1] (cell cycle stage: mitosis) was 53.1 °C throughout. Also, the thermal stability score in data set [2] (setting [5]) turned out to be 0.491; in data set [2] (cell cycle stage: mitosis) it was 0.31. Further, the “solubility change mitosis (log2)” value in data set [3] was -0.121. The “solubility in G1/S (log2)” value in data set [4] was 0.438.

Take “MLSESSSFLKGVMLGSIFCALITMLGHIRIGHGNRMHHHEHHHLQAPNKEDILKISEDERMELSKSFRVYCIILVKPKDVSLWAAVKETWTKHCDKAEFFSSENVKVFESINMDTNDMWLMMRKAYKYAFDKYRDQYNWFFLARPTTFAIIENLKYFLLKKDPSQPFYLGHTIKSGDLEYVGMEGGIVLSVESMKRLNSLLNIPEKCPEQGGMIWKISEDKQLAVCLKYAGVFAENAEDADGKDVFNTKSVGLSIKEAMTYHPNQVVEGCCSDMAVTFNGLTPNQMHVMMYGVYRLRAFGHIFNDALVFLPPNGSDND [C1GALT1C1]”: the melting temperature in data set [1] (cell cycle stage: G1/S) amounted to 53.9 °C; in data set [1] (cell cycle stage: mitosis) it was 53.4 °C. Besides, the values for the thermal stability score in data set [2] (setting [5]) and in data set [2] (cell cycle stage: mitosis) were -0.0972 and -0.609, respectively. Moreover, the “solubility change mitosis (log2)” value in data set [3] was -0.0947. For the same sequence, in data set [4], the “solubility in G1/S (log2)” value stood at 0.0342.

In the case of “MLSLLVWILTLSDTFSQGTQTRFSQEPADQTVVAGQRAVLPCVLLNYSGIVQWTKDGLALGMGQGLKAWPRYRVVGSADAGQYNLEITDAELSDDASYECQATEAALRSRRAKLTVLIPPEDTRIDGGPVILLQAGTPHNLTCRAFNAKPAATIIWFRDGTQQEGAVASTELLKDGKRETTVSQLLINPTDLDIGRVFTCRSMNEAIPSGKETSIELDVHHPPTVTLSIEPQTVQEGERVVFTCQATANPEILGYRWAKGGFLIEDAHESRYETNVDYSFFTEPVSCEVHNKVGSTNVSTLVNVHFAPRIVVDPKPTTTDIGSDVTLTCVWVGNPPLTLTWTKKDSNMVLSNSNQLLLKSVTQADAGTYTCRAIVPRIGVAEREVPLYVNGPPIISSEAVQYAVRGDGGKVECFIGSTPPPDRIAWAWKENFLEVGTLERYTVERTNSGSGVLSTLTINNVMEADFQTHYNCTAWNSFGPGTAIIQLEEREVLPVGIIAGATIGASILLIFFFIALVFFLYRRRKGSRKDVTLRKLDIKVETVNREPLTMHSDREDDTASVSTATRVMKAIYSSFKDDVDLKQDLRCDTIDTREEYEMKDPTNGYYNVRAHEDRPSSRAVLYADYRAPGPARFDGRPSSRLSHSSGYAQLNTYSRGPASDYGPEPTPPGPAAPAGTDTTSQLSYENYEKFNSHPFPGAAGYPTYRLGYPQAPPSGLERTPYEAYDPIGKYATATRFSYTSQHSDYGQRFQQRMQTHV [KIRREL]”, the melting temperature in data set [1] (cell cycle stage: G1/S) was 52 °C; in data set [1] (cell cycle stage: mitosis), 52.2 °C. Further, the thermal stability score in data set [2] (setting [5]) was -1.16; in data set [2] (cell cycle stage: mitosis), -0.769. The “solubility change mitosis (log2)” value in data set [3] came out at 0.0763. The “solubility in G1/S (log2)” value in data set [4] is -0.151.
